According to patent publication US20210115124A1 (Genentech, published 2021):
Like-named read-outs stand apart in the source and are kept apart here.

T1: human VEGF (hVEGF) (human, UniProt P15692 181-395)
T1 construct: also called VEGF-A
T1 sequence: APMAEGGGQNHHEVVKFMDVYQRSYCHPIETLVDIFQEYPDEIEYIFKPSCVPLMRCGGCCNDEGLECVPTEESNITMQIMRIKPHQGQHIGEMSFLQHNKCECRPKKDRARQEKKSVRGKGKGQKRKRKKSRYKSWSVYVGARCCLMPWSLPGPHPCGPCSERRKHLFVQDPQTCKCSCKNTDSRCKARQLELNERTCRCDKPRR

T2: VEGF (as used in the HUVEC migration assay) (Homo sapiens (Human), UniProt P15692 181-395)
T2 sequence: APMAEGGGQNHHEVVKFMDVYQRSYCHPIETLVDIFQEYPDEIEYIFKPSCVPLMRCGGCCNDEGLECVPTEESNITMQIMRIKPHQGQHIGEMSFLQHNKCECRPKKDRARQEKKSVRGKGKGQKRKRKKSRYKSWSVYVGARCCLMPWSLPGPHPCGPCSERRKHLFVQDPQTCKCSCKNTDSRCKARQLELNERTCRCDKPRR


Assays:
human VEGF (hVEGF) [1] = target: T1, human VEGF (hVEGF); assay: SPR
From the text: (§1) To determine the binding affinity of selected Fab variants, SPR measurement with a BIACORE® T200 instrument was used. Briefly, series S sensor chip CM5 was activated with 1-ethyl-3-(3-dimethylaminopropyl) carbodiimide (EDC) and N-hydroxysuccinimide (NHS) reagents according to the supplier's instructions, and human VEGF (hVEGF) was coupled to achieve 50-80 response units (RU), then following by blocking un-reacted groups with 1M ethanolamine.
(§2) Three-fold serial dilutions of Fab in HBS-P buffer (0.01 M HEPES pH 7.4, 0.15 M NaCl, 0.005% surfactant P20) from low (0.02 nM) to high (50 nM) were injected (flow rate: 30 μl/min). The binding responses on hVEGF were corrected by subtracting of RU from a blank flow cell. The sensorgram was recorded and subject to reference and buffer subtraction before evaluating by BIACORE® T200 Evaluation Software (version 2.0). Association rates (kₒₙ) and dissociation rates (koff) were calculated using a simple one-to-one Langmuir binding model. The equilibrium dissociation constant (Kd) was calculated as the ratio koff/kₒₙ.

human VEGF (hVEGF) [2] = target: T1, human VEGF (hVEGF); assay: SPR; remark: listed apart in the source
From the text: as §1, §2

[3] = target: T2, VEGF (as used in the HUVEC migration …); assay: cell-based or functional assay
human VEGF (hVEGF) [4] = target: T1, human VEGF (hVEGF); assay: SPR; remark: listed apart in the source
human VEGF (hVEGF) [5] = target: T1, human VEGF (hVEGF); assay: BIACORE SPR on immobilised hVEGF; label beside the mutation on the structure of the VEGF-bound G6 Fab (PDB 2FJG)
human VEGF (hVEGF) [6] = target: T1, human VEGF (hVEGF); assay: SPR single-cycle;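 for Fold change (relative to G6.31): fab variants injected over hVEGF immobilized on a CM5 chip (Biacore T200), threefold dilution series from 0.02 to 50 nM, kinetics fitted with a 1:1 Langmuir model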
human VEGF (hVEGF) [7] = target: T1, human VEGF (hVEGF); assay: SPR; remark: listed apart in the source
From the text: as §1, §2

human VEGF (hVEGF) [8] = target: T1, human VEGF (hVEGF); assay: BIACORE SPR on immobilised hVEGF; label beside the mutation on the structure of the VEGF-bound G6 Fab (PDB 2FJG); remark: listed apart in the source
human VEGF (hVEGF) [9] = target: T1, human VEGF (hVEGF); assay: SPR single-cycle; remark: listed apart in the source;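 for Fold change (relative to G6.31): fab variants injected over hVEGF immobilized on a CM5 chip (Biacore T200), threefold dilution series from 0.02 to 50 nM, kinetics fitted with a 1:1 Langmuir model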
From the text: as §1, §2

Row | Binder | fold increase in affinity compared to wild-type G6.31 (human VEGF (hVEGF) [4]) [fold] | fold change in binding affinity (Kd) compared to G6.31 (human VEGF (hVEGF) [5]) [x] | Fold difference (relative to G6.31) (human VEGF (hVEGF) [6]) [fold] | Kd (human VEGF (hVEGF) [6]) [nM] | koff (human VEGF (hVEGF) [6]) [s⁻¹] | kon (human VEGF (hVEGF) [6]) [M⁻¹ s⁻¹] | fold change in binding affinity (Kd) compared to G6.31 (human VEGF (hVEGF) [8]) [x] | further results
1 | G6.31 AAEE (LC-N94A.LC-F83A.HC-A40E.HC-T57E) (Fab, V domains shown, Fab; also called HC-A40E, HC-T57E, LC-F83A, LC-N94A) VH: EVQLVESGGGLVQPGGSLRLSCAASGFTISDYWIHWVRQEPGKGLEWVAGITPAGGYEYYADSVKGRFTISADTSKNTAYLQMNSLRAEDTAVYYCARFVFFLPYAMDYWGQGTLVTVSS VL: DIQMTQSPSSLSASVGDRVTITCRASQDVSTAVAWYQQKPGKAPKLLIYSASFLYSGVPSRFSGSGSGTDFTLTISSLQPEDAATYYCQQGYGAPFTFGQGTKVEIK |  |  |  |  |  |  |  | Kd (human VEGF (hVEGF) [1]): 0.584 nM; koff (human VEGF (hVEGF) [1]): 0.000741 s⁻¹; kon (human VEGF (hVEGF) [1]): 1.27e+06 M⁻¹ s⁻¹; Kd (human VEGF (hVEGF) [2]): 0.58 nM; koff (human VEGF (hVEGF) [2]): 0.000741 s⁻¹; kon (human VEGF (hVEGF) [2]): 1.27e+06 M⁻¹ s⁻¹; IC50 relative to G6.31, VEGF-induced HUVEC migration [3]: 0.9 fold
2 | G6.31 HC-Q81S (Fab, name in Kabat numbering, V domains shown, Fab) VH: EVQLVESGGGLVQPGGSLRLSCAASGFTISDYWIHWVRQAPGKGLEWVAGITPAGGYTYYADSVKGRFTISADTSKNTAYLSMNSLRAEDTAVYYCARFVFFLPYAMDYWGQGTLVTVSS VL: DIQMTQSPSSLSASVGDRVTITCRASQDVSTAVAWYQQKPGKAPKLLIYSASFLYSGVPSRFSGSGSGTDFTLTISSLQPEDFATYYCQQGYGNPFTFGQGTKVEIK |  | 3 | 3.4 | 0.45 | 0.000487 | 1.07e+06 |  | 
3 | G6.31 LC-D28R (Fab, V domains shown, Fab) VH: EVQLVESGGGLVQPGGSLRLSCAASGFTISDYWIHWVRQAPGKGLEWVAGITPAGGYTYYADSVKGRFTISADTSKNTAYLQMNSLRAEDTAVYYCARFVFFLPYAMDYWGQGTLVTVSS VL: DIQMTQSPSSLSASVGDRVTITCRASQRVSTAVAWYQQKPGKAPKLLIYSASFLYSGVPSRFSGSGSGTDFTLTISSLQPEDFATYYCQQGYGNPFTFGQGTKVEIK |  |  | 2.8 | 0.56 | 0.000655 | 1.17e+06 | 3 | 
4 | G6.31 LC-L73G (Fab, V domains shown, Fab) VH: EVQLVESGGGLVQPGGSLRLSCAASGFTISDYWIHWVRQAPGKGLEWVAGITPAGGYTYYADSVKGRFTISADTSKNTAYLQMNSLRAEDTAVYYCARFVFFLPYAMDYWGQGTLVTVSS VL: DIQMTQSPSSLSASVGDRVTITCRASQDVSTAVAWYQQKPGKAPKLLIYSASFLYSGVPSRFSGSGSGTDFTGTISSLQPEDFATYYCQQGYGNPFTFGQGTKVEIK | ~1.6 |  | 1.4 | 1.09 | 0.000644 | 589000 | 2 | 
5 | G6.31 LC-F83A (Fab, V domains shown, Fab) VH: EVQLVESGGGLVQPGGSLRLSCAASGFTISDYWIHWVRQAPGKGLEWVAGITPAGGYTYYADSVKGRFTISADTSKNTAYLQMNSLRAEDTAVYYCARFVFFLPYAMDYWGQGTLVTVSS VL: DIQMTQSPSSLSASVGDRVTITCRASQDVSTAVAWYQQKPGKAPKLLIYSASFLYSGVPSRFSGSGSGTDFTLTISSLQPEDAATYYCQQGYGNPFTFGQGTKVEIK | 3 |  | 3.1 | 0.5 | 0.000433 | 855000 | 3 | Fold improved (relative to WT) (human VEGF (hVEGF) [7]): 4 fold; Kd (human VEGF (hVEGF) [7]): 0.132 nM; koff (human VEGF (hVEGF) [7]): 0.000218 s⁻¹; kon (human VEGF (hVEGF) [7]): 1.65e+06 M⁻¹ s⁻¹
6 | G6.31 LC-Y36G (Fab, V domains shown, Fab) VH: EVQLVESGGGLVQPGGSLRLSCAASGFTISDYWIHWVRQAPGKGLEWVAGITPAGGYTYYADSVKGRFTISADTSKNTAYLQMNSLRAEDTAVYYCARFVFFLPYAMDYWGQGTLVTVSS VL: DIQMTQSPSSLSASVGDRVTITCRASQDVSTAVAWGQQKPGKAPKLLIYSASFLYSGVPSRFSGSGSGTDFTLTISSLQPEDFATYYCQQGYGNPFTFGQGTKVEIK |  |  | 0.6 | 2.47 | 0.000558 | 225000 | 0.5 | 
7 | G6.31 LC-S50M (Fab, V domains shown, Fab) VH: EVQLVESGGGLVQPGGSLRLSCAASGFTISDYWIHWVRQAPGKGLEWVAGITPAGGYTYYADSVKGRFTISADTSKNTAYLQMNSLRAEDTAVYYCARFVFFLPYAMDYWGQGTLVTVSS VL: DIQMTQSPSSLSASVGDRVTITCRASQDVSTAVAWYQQKPGKAPKLLIYMASFLYSGVPSRFSGSGSGTDFTLTISSLQPEDFATYYCQQGYGNPFTFGQGTKVEIK |  |  | 1.2 | 1.31 | 0.000611 | 467000 | 1 | 

Second part, led by results:

Row | fold increase in affinity compared to wild-type G6.31 (human VEGF (hVEGF) [4]) [fold] | fold change in binding affinity (Kd) compared to G6.31 (human VEGF (hVEGF) [5]) [x] | Fold difference (relative to G6.31) (human VEGF (hVEGF) [6]) [fold] | Kd (human VEGF (hVEGF) [6]) [nM] | koff (human VEGF (hVEGF) [6]) [s⁻¹] | kon (human VEGF (hVEGF) [6]) [M⁻¹ s⁻¹] | fold change in binding affinity (Kd) compared to G6.31 (human VEGF (hVEGF) [8]) [x] | Binder | further results
8 | ~6.6 | 7 | 6.7 | 0.23 | 0.000322 | 1.39e+06 |  | G6.31 HC-N82aR (Fab, name in Kabat numbering, V domains shown, Fab) VH: EVQLVESGGGLVQPGGSLRLSCAASGFTISDYWIHWVRQAPGKGLEWVAGITPAGGYTYYADSVKGRFTISADTSKNTAYLQMRSLRAEDTAVYYCARFVFFLPYAMDYWGQGTLVTVSS VL: DIQMTQSPSSLSASVGDRVTITCRASQDVSTAVAWYQQKPGKAPKLLIYSASFLYSGVPSRFSGSGSGTDFTLTISSLQPEDFATYYCQQGYGNPFTFGQGTKVEIK | Fold improved (relative to WT) (human VEGF (hVEGF) [7]): 6.8 fold; Kd (human VEGF (hVEGF) [7]): 0.077 nM; koff (human VEGF (hVEGF) [7]): 0.000124 s⁻¹; kon (human VEGF (hVEGF) [7]): 1.62e+06 M⁻¹ s⁻¹
9 | 8 to 9 | 8 | 7.7 | 0.2 | 0.000402 | 1.93e+06 |  | G6.31 HC-T57E (Fab, name in Kabat numbering, V domains shown, Fab) VH: EVQLVESGGGLVQPGGSLRLSCAASGFTISDYWIHWVRQAPGKGLEWVAGITPAGGYEYYADSVKGRFTISADTSKNTAYLQMNSLRAEDTAVYYCARFVFFLPYAMDYWGQGTLVTVSS VL: DIQMTQSPSSLSASVGDRVTITCRASQDVSTAVAWYQQKPGKAPKLLIYSASFLYSGVPSRFSGSGSGTDFTLTISSLQPEDFATYYCQQGYGNPFTFGQGTKVEIK | 
10 | 8 to 9 | 9 | 9.1 | 0.17 | 0.000255 | 1.48e+06 |  | G6.31 HC-Y58R (Fab, name in Kabat numbering, V domains shown, Fab) VH: EVQLVESGGGLVQPGGSLRLSCAASGFTISDYWIHWVRQAPGKGLEWVAGITPAGGYTRYADSVKGRFTISADTSKNTAYLQMNSLRAEDTAVYYCARFVFFLPYAMDYWGQGTLVTVSS VL: DIQMTQSPSSLSASVGDRVTITCRASQDVSTAVAWYQQKPGKAPKLLIYSASFLYSGVPSRFSGSGSGTDFTLTISSLQPEDFATYYCQQGYGNPFTFGQGTKVEIK | Fold improved (relative to WT) (human VEGF (hVEGF) [7]): 6.9 fold; Kd (human VEGF (hVEGF) [7]): 0.076 nM; koff (human VEGF (hVEGF) [7]): 0.000184 s⁻¹; kon (human VEGF (hVEGF) [7]): 2.42e+06 M⁻¹ s⁻¹
11 |  | 4 | 3.7 | 0.42 | 0.00035 | 829000 |  | G6.31 HC-A53R (Fab, name in Kabat numbering, V domains shown, Fab) VH: EVQLVESGGGLVQPGGSLRLSCAASGFTISDYWIHWVRQAPGKGLEWVAGITPRGGYTYYADSVKGRFTISADTSKNTAYLQMNSLRAEDTAVYYCARFVFFLPYAMDYWGQGTLVTVSS VL: DIQMTQSPSSLSASVGDRVTITCRASQDVSTAVAWYQQKPGKAPKLLIYSASFLYSGVPSRFSGSGSGTDFTLTISSLQPEDFATYYCQQGYGNPFTFGQGTKVEIK | 
12 |  |  | 3.7 | 0.42 | 0.000493 | 1.17e+06 | 4 | G6.31 LC-Q89T (Fab, V domains shown, Fab) VH: EVQLVESGGGLVQPGGSLRLSCAASGFTISDYWIHWVRQAPGKGLEWVAGITPAGGYTYYADSVKGRFTISADTSKNTAYLQMNSLRAEDTAVYYCARFVFFLPYAMDYWGQGTLVTVSS VL: DIQMTQSPSSLSASVGDRVTITCRASQDVSTAVAWYQQKPGKAPKLLIYSASFLYSGVPSRFSGSGSGTDFTLTISSLQPEDFATYYCTQGYGNPFTFGQGTKVEIK | 
13 |  | 4 | 3.8 | 0.41 | 0.000466 | 1.13e+06 |  | G6.31 HC-A40E (Fab, name in Kabat numbering, V domains shown, Fab) VH: EVQLVESGGGLVQPGGSLRLSCAASGFTISDYWIHWVRQEPGKGLEWVAGITPAGGYTYYADSVKGRFTISADTSKNTAYLQMNSLRAEDTAVYYCARFVFFLPYAMDYWGQGTLVTVSS VL: DIQMTQSPSSLSASVGDRVTITCRASQDVSTAVAWYQQKPGKAPKLLIYSASFLYSGVPSRFSGSGSGTDFTLTISSLQPEDFATYYCQQGYGNPFTFGQGTKVEIK | Fold change (relative to G6.31) (human VEGF (hVEGF) [9]): 0.6 fold; Kd (human VEGF (hVEGF) [9]): 2.63 nM; koff (human VEGF (hVEGF) [9]): 0.000517 s⁻¹; kon (human VEGF (hVEGF) [9]): 197000 M⁻¹ s⁻¹
